Experimental data reported in patent publication US20230134571A1 (INTERNATIONAL AIDS VACCINE INITIATIVE, published 2023).
Residue numbers refer to the chain shown, from its start.

B1: ePGDM5 (antibody, V domains shown)
VH: QAQLVQSGPEVRKPGTSVKVSCKNPGNTLTTYDLHWVRQVPGQGLQWMGWISHEGDKKVIVERFKAKVTIDWDRSTNTAYLQLSGLTSEDTAVYYCAKGSKHRLRDYALYDEDGALNWAVDVDYLANLEFWGQGTAVTVSS
VL: DFVLTQSPLSLSVTPGESASISCKSDHSLQHGDRNNYLAWYVQKPGRSPQLLIDLASERASGVPDRFSGSGSRKDFTLKIDRVEAEDVGTYYCMQGRESPWTFGQGTKVDIK
B2: ePGDM9 (antibody, V domains shown)
VH: B1 VH
VL: B1 VL with F2I, D26S, H27Q, Q30I, D81S, A85T
B3: ePGDM13 (antibody, V domains shown)
VH: B1 VH
VL: B1 VL with F2I, D26S, I53L, R73E, D81S, A85T
B4: ePGDM5 (antibody, V domains shown)
VH: B1 VH
VL: B1 VL
B5: PGDM1400 (antibody, V domains shown)
VH: B1 VH with A2V, Q3H, V5T, N24A, T30K, Q39S, E89G, E112D, A126S
VL: B1 VL with L9H, D26S, Q30I, D54Y, E58S, R73D, D81S, A85T
B6: ePGDM9 (antibody, V domains shown)
VH: B1 VH
VL: B1 VL with F2I, D26S, H27Q, Q30I, D81S, A85T

Target: HIV Env, isolate Du172.17 (HIV)
Experiment: cell-based or functional assay

Binder | IC80 (µg/ml) with constrains [µg/mL]
B1 | 5.98
B2 | 3.46

Target: HIV Env, isolate HIV-0013095-2.11 (HIV)
Experiment: cell-based or functional assay

Binder | IC80 (µg/ml) with constrains [µg/mL]
B1 | > 100
B2 | > 100

Target: HIV Env of isolate CAAN5342.A2 (clade B) (HIV)
Experiment: cell-based or functional assay

Binder | IC50 (µg/ml) with constrains [µg/mL]
B3 | 40.2
B4 | 73
B5 | > 100
B6 | 17.5

Target: HIV Env, isolate ZM53M.PB12 (HIV)
Experiment: cell-based or functional assay

Binder | IC80 (µg/ml) with constrains [µg/mL]
B1 | 0.022
B2 | 0.026

Target: HIV Env, isolate Ce1176_A3 (HIV)
Experiment: cell-based or functional assay

Binder | IC80 (µg/ml) with constrains [µg/mL]
B1 | 0.088
B2 | 0.089

Target: HIV Env of isolate TRJO4551.58 (clade B) (HIV)
Experiment: cell-based or functional assay

Binder | IC50 (µg/ml) with constrains [µg/mL]
B3 | > 100
B4 | > 100
B5 | > 100
B6 | > 100

Target: HIV Env of isolate Du422.1 (clade C) (HIV)
Experiment: cell-based or functional assay

Binder | IC50 (µg/ml) with constrains [µg/mL]
B3 | 27.5
B4 | 8.64
B5 | 33.4
B6 | 13.3

Target: HIV Env, isolate 231965.c01 (HIV)
Experiment: cell-based or functional assay

Binder | IC80 (µg/ml) with constrains [µg/mL]
B1 | 0.035
B2 | 0.037

Target: HIV Env, isolate Du156.12 (HIV)
Experiment: cell-based or functional assay

Binder | IC80 (µg/ml) with constrains [µg/mL]
B1 | 0.026
B2 | 0.016

Target: HIV Env of isolate BJOX025000.01.1 (clade AE) (HIV)
Experiment: cell-based or functional assay

Binder | IC50 (µg/ml) with constrains [µg/mL] | IC80 (µg/ml) with constrains [µg/mL]
B3 | 0.018 | 0.071
B4 | 0.018 | 0.072
B5 | 0.055 | 0.22
B6 | 0.018 | 0.072

Target: HIV Env of isolate 7030102001E5(Rev-) (clade C) (HIV)
Experiment: cell-based or functional assay

Binder | IC50 (µg/ml) with constrains [µg/mL]
B3 | > 100
B4 | > 100
B5 | > 100
B6 | > 100

Target: HIV Env, isolate P1981_C5_3 (HIV)
Experiment: cell-based or functional assay

Binder | IC80 (µg/ml) with constrains [µg/mL]
B1 | 1.18
B2 | 0.585

Target: HIV Env, isolate Ce0682_E4 (HIV)
Experiment: cell-based or functional assay

Binder | IC80 (µg/ml) with constrains [µg/mL]
B1 | 0.021
B2 | 0.022

Target: HIV Env, isolate 1012_11_TC21_3257 (HIV)
Experiment: cell-based or functional assay

Binder | IC80 (µg/ml) with constrains [µg/mL]
B1 | 0.305
B2 | 0.167

Target: HIV Env of isolate 3016.v5.c45 (clade D) (HIV)
Experiment: cell-based or functional assay

Binder | IC50 (µg/ml) with constrains [µg/mL]
B3 | > 100
B4 | > 100
B5 | > 100
B6 | > 100

Target: HIV Env of isolate C4118.c09 (clade AE) (HIV)
Experiment: cell-based or functional assay

Binder | IC50 (µg/ml) with constrains [µg/mL] | IC80 (µg/ml) with constrains [µg/mL]
B3 | 0.001 | 0.005
B4 | – | 0.002
B5 | 0.002 | 0.006
B6 | 0.001 | 0.005

Target: HIV Env of isolate Du172.17 (clade C) (HIV)
Experiment: cell-based or functional assay

Binder | IC50 (µg/ml) with constrains [µg/mL]
B3 | 1.5
B4 | 1.49
B5 | 5.42
B6 | 0.865

Target: HIV Env of isolate MS208.A1 (clade A) (HIV)
Experiment: cell-based or functional assay

Binder | IC50 (µg/ml) with constrains [µg/mL] | IC80 (µg/ml) with constrains [µg/mL]
B3 | 0.027 | 0.109
B4 | 0.007 | 0.029
B5 | 0.01 | 0.041
B6 | 0.009 | 0.036

Target: HIV Env, isolate HIV-16845-2.22 (HIV)
Experiment: cell-based or functional assay

Binder | IC80 (µg/ml) with constrains [µg/mL]
B1 | > 100
B2 | > 100

Target: HIV Env of isolate 6244_13_B5_4576 (clade B) (HIV)
Experiment: cell-based or functional assay

Binder | IC50 (µg/ml) with constrains [µg/mL]
B3 | 30.8
B4 | 18.9
B5 | > 100
B6 | 12.6

Target: HIV Env of isolate 6535.3 (clade B) (HIV)
Experiment: cell-based or functional assay

Binder | IC50 (µg/ml) with constrains [µg/mL]
B3 | > 100
B4 | 98.2
B5 | > 100
B6 | 57.8

Target: HIV Env, isolate 6952.v1.c20 (HIV)
Experiment: cell-based or functional assay

Binder | IC80 (µg/ml) with constrains [µg/mL]
B1 | 0.132
B2 | 0.21

Target: HIV Env, isolate ZM249M.PL1 (HIV)
Experiment: cell-based or functional assay

Binder | IC80 (µg/ml) with constrains [µg/mL]
B1 | 0.138
B2 | 0.008

Target: HIV Env, isolate REJO4541.67 (HIV)
Experiment: cell-based or functional assay

Binder | IC80 (µg/ml) with constrains [µg/mL]
B1 | 0.005
B2 | 0.003

Target: HIV Env of isolate PVO.4 (clade B) (HIV)
Experiment: cell-based or functional assay

Binder | IC50 (µg/ml) with constrains [µg/mL]
B3 | 2.95
B4 | 1.39
B5 | 3.41
B6 | 1.93

Target: HIV Env, isolate PVO.4 (HIV)
Experiment: cell-based or functional assay

Binder | IC80 (µg/ml) with constrains [µg/mL]
B1 | 5.57
B2 | 7.7

Target: HIV Env of isolate SC422661.8 (clade B) (HIV)
Experiment: cell-based or functional assay

Binder | IC50 (µg/ml) with constrains [µg/mL]
B3 | 1.56
B4 | 1.33
B5 | 15.7
B6 | 1.33

Target: HIV Env, isolate A07412M1.vrc12 (HIV)
Experiment: cell-based or functional assay

Binder | IC80 (µg/ml) with constrains [µg/mL]
B1 | 0.035
B2 | 0.103

Target: HIV Env of isolate 3301.v1.c24 (clade AC) (HIV)
Experiment: cell-based or functional assay

Binder | IC50 (µg/ml) with constrains [µg/mL] | IC80 (µg/ml) with constrains [µg/mL]
B3 | 0.057 | 0.228
B4 | 0.043 | 0.174
B5 | 0.131 | 0.523
B6 | 0.021 | 0.084

Target: HIV Env of isolate ZM249M.PL1 (clade C) (HIV)
Experiment: cell-based or functional assay

Binder | IC50 (µg/ml) with constrains [µg/mL]
B3 | 0.014
B4 | 0.035
B5 | 0.025
B6 | 0.002

Target: HIV Env of isolate X1254_C3 (clade G) (HIV)
Experiment: cell-based or functional assay

Binder | IC50 (µg/ml) with constrains [µg/mL]
B3 | 0.518
B4 | 0.217
B5 | 45.4
B6 | 0.178

Target: HIV Env of isolate X1632_S2_B10 (clade G) (HIV)
Experiment: cell-based or functional assay

Binder | IC50 (µg/ml) with constrains [µg/mL]
B3 | 0.003
B4 | 0.003
B5 | 0.034
B6 | 0.003

Target: HIV Env of isolate T251-18 (clade AG) (HIV)
Experiment: cell-based or functional assay

Binder | IC50 (µg/ml) with constrains [µg/mL] | IC80 (µg/ml) with constrains [µg/mL]
B3 | > 100 | > 100
B4 | > 100 | > 100
B5 | > 100 | > 100
B6 | > 100 | > 100

Target: HIV Env, isolate 1056_10_TA11_1826 (HIV)
Experiment: cell-based or functional assay

Binder | IC80 (µg/ml) with constrains [µg/mL]
B1 | 3.57
B2 | 3.61

Target: HIV Env of isolate Ce703010054_2A2 (clade C) (HIV)
Experiment: cell-based or functional assay

Binder | IC50 (µg/ml) with constrains [µg/mL]
B3 | 0.008
B4 | 0.008
B5 | 0.014
B6 | 0.008

Target: HIV Env of isolate Ce0393_C3 (clade C) (HIV)
Experiment: cell-based or functional assay

Binder | IC50 (µg/ml) with constrains [µg/mL]
B3 | 0.006
B4 | 0.016
B5 | 0.009
B6 | 0.004

Target: HIV Env of isolate 1012_11_TC21_3257 (clade B) (HIV)
Experiment: cell-based or functional assay

Binder | IC50 (µg/ml) with constrains [µg/mL]
B3 | 0.065
B4 | 0.076
B5 | 0.076
B6 | 0.042

Target: HIV Env, isolate Ce0393_C3 (HIV)
Experiment: cell-based or functional assay

Binder | IC80 (µg/ml) with constrains [µg/mL]
B1 | 0.063
B2 | 0.017

Target: HIV Env of isolate Du156.12 (clade C) (HIV)
Experiment: cell-based or functional assay

Binder | IC50 (µg/ml) with constrains [µg/mL]
B3 | 0.006
B4 | 0.006
B5 | 0.006
B6 | 0.004

Target: HIV Env of isolate 89-F1_2_25 (clade CD) (HIV)
Experiment: cell-based or functional assay

Binder | IC50 (µg/ml) with constrains [µg/mL]
B3 | 0.001
B4 | 0.001
B5 | 0.003
B6 | 0.001

Target: HIV Env, isolate TRO.11 (HIV)
Experiment: cell-based or functional assay

Binder | IC80 (µg/ml) with constrains [µg/mL]
B1 | 1.26
B2 | 0.652

Target: HIV Env of isolate Ce2060_G9 (clade C) (HIV)
Experiment: cell-based or functional assay

Binder | IC50 (µg/ml) with constrains [µg/mL]
B3 | 0.018
B4 | 0.011
B5 | 0.025
B6 | 0.134
